Substitutions are numbered along the chain they refer to. In names and notes the source's numbering stands.
B1: Humanized antibody No. 113 (antibody, human IgG2, kappa, V domains shown)
VH: QVQLVQSGAEVKKPGSSVKVSCKASGGTFSDYEMHWVRQAPGQGLEWMGAIDPETGGTAYNQKFKGRVTITADKSTSTAYMELRSLRSEDTAVYYCADYDYDGFAYWGQGTLVTVSS
VL: DIVMTQSPLSLSITPGEQASISCRSSQSLVHSNGNTYLHWYLQKPGQSPQLLISKVSNRFSGVPDRFSGSGSGTDFTLKISRVEAEDVGVYFCSQNTHVPPLTFGGGTKVEIKR
notes: human IgG2 (V234A, G237A, C-terminal Lys deleted) / kappa; Expi293F, Protein A purified; also called HK1-6/L1-5
B2: Humanized antibody No. 114 (antibody, human IgG2, kappa, V domains shown)
VH: B1 VH with V68A
VL: B1 VL
notes: human IgG2 (V234A, G237A, C-terminal Lys deleted) / kappa; Expi293F, Protein A purified; also called HK1-4/L1-5
B3: Humanized antibody No. 112 (antibody, human IgG2, kappa, V domains shown)
VH: B1 VH with R84S
VL: B1 VL
notes: human IgG2 (V234A, G237A, C-terminal Lys deleted) / kappa; Expi293F, Protein A purified; also called HK1-5/L1-5
B4: Humanized antibody No. 110 (antibody, human IgG2, kappa, V domains shown)
VH: B1 VH with G27Y, S30T, N61A, K65Q
VL: B1 VL
notes: human IgG2 (V234A, G237A, C-terminal Lys deleted) / kappa; Expi293F, Protein A purified; also called HA1-6/L1-5
B5: Humanized antibody No. 116 (antibody, human IgG2, kappa, V domains shown)
VH: B1 VH with S16A, G27Y, S30T, I70M, K74T, R84S
VL: B1 VL
notes: human IgG2 (V234A, G237A, C-terminal Lys deleted) / kappa; Expi293F, Protein A purified; also called HK2-5/L1-5
B6: Humanized antibody No. 111 (antibody, human IgG2, kappa, V domains shown)
VH: B1 VH with G27Y, S30T, N61A, K65Q, V68A
VL: B1 VL
notes: human IgG2 (V234A, G237A, C-terminal Lys deleted) / kappa; Expi293F, Protein A purified; also called HA1-4/L1-5
B7: Humanized antibody No. 115 (antibody, human IgG2, kappa, V domains shown)
VH: B1 VH with G27Y, M48I, V68A, A97T
VL: B1 VL
notes: human IgG2 (V234A, G237A, C-terminal Lys deleted) / kappa; Expi293F, Protein A purified; also called HK1-A/L1-5
B8: 3× Flag-mouse CD69 EC (with sugar chain) (receptor, not shown: small tags and cut ends)
chain: NVGKYNCPGLYEKLESSDHHVATCKNEWISYKRTCYFFSTTTKSWALAQRSCSEDAATLAVIDSEKDMTFLKRYSGELEHWIGLKNEANQTWKWANGKEFNSWFNLTGSGRCVSVNHKNVTAVDCEANFHWVCSKPSR
modifications: N-linked sugar chains present (made in Expi293F cells, not PNGase F treated)
notes: Secreted from Expi293F cells and purified on Anti-Flag M2 gel; also called 3× Flag mouse CD69 EC protein; mouse CD69 extracellular region protein
B9: PNGase F-treated 3× Flag-mouse CD69 EC (without sugar chain) (receptor, not shown: small tags and cut ends)
chain: B8 chain
modifications: N-linked sugar chain cleaved with PNGase F
notes: also called 3× Flag-mouse CD69 EC subjected to sugar chain cleaving treatment; mouse CD69 extracellular region protein

What follows are binders tested against T1, human Myl3-His (human, UniProt P08590 2-195, limits assumed) (assay: ELISA at 0.01, 0.1 and 1 µg/mL, human Myl3-His coated, anti-human IgG-HRP).
T1 construct: Made in E. coli; the GST tag was cleaved with PreScission Protease
Protocol: (§1) The binding ability of chimeric and humanized antibodies prepared from Antibody A against human Myl12a and Myl12b was evaluated following the steps below by ELISA. Human Myl3-His, human Myl9-His, human Myl12a-His and human Myl12b-His were coated onto the wells of a 96-well plate (Nunc), respectively. After an overnight incubation at 4° C., the wells were blocked at room temperature for one hour with 1× Block Ace (DS Pharma Biomedical Co., Ltd.). After washing three times with 0.02% Tween 20/PBS, the chimeric and humanized antibodies were diluted at the concentration of 0.01, 0.1 and 1 μg/mL, respectively and added to the wells. After incubation at room temperature for one hour and washing three times, horseradish peroxidase-labeled anti-human IgG antibody (Jackson ImmunoResearch Laboratories) was added, and this was incubated at room temperature for one hour. After washing 5 times, TMBZ (3,3′,5,5′-tetramethylbenzidine) solution was added to the wells, and this was incubated for 5-20 minutes at room temperature. An equal amount of reaction quenching solution (2N H₂SO₄) was added to the wells, and absorbance at 450 nm was read with a microplate reader (Thermo Scientific).

T1 sequence (P08590 2-195 limits assumed): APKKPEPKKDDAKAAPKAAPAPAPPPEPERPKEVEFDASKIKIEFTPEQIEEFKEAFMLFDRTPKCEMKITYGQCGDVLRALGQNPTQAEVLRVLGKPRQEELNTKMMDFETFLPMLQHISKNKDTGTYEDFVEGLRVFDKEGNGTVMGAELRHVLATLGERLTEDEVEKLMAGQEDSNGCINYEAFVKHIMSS

Does B1 bind?
Result: no binding (tested: 1 µg/mL)

Does B2 bind?
Result: no binding (tested: 1 µg/mL)

Does B3 bind?
Result: no binding (tested: 1 µg/mL)

Does B4 bind?
Result: no binding (tested: 1 µg/mL)

Does B5 bind?
Result: no binding (tested: 1 µg/mL)

Does B6 bind?
Result: no binding (tested: 1 µg/mL)

Does B7 bind?
Result: no binding (tested: 1 µg/mL)

These binders were tested against T2, human Myl12a-His (human, UniProt P19105 1-171) (assay: ELISA, human Myl12a-His coated, anti-human IgG-HRP).
T2 construct: Made in E. coli; GST tag cleaved with PreScission Protease; DTT-treated monomer
T2 sequence: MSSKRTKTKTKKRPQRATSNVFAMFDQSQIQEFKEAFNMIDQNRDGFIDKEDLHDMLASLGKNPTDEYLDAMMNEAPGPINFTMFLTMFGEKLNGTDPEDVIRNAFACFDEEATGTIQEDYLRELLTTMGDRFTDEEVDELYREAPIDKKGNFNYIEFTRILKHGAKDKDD
Protocol: as §1

Does B1 bind?
Result: binds

Does B2 bind?
Result: binds

Does B3 bind?
Result: binds

Does B4 bind?
Result: binds

Does B5 bind?
Result: binds

Does B6 bind?
Result: binds

Does B7 bind?
Result: binds

Each binder was assayed against T3, human Myl12b-His (human, UniProt O14950 1-172) (assay: ELISA, human Myl12b-His coated, anti-human IgG-HRP).
T3 construct: Made in E. coli; GST tag cleaved with PreScission Protease; DTT-treated monomer
T3 sequence: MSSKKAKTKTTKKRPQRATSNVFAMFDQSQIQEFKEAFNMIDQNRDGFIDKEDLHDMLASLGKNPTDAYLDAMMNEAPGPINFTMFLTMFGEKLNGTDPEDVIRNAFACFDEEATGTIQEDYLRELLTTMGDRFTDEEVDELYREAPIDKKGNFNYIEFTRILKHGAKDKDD
Protocol: as §1

Does B1 bind?
Result: binds

Does B2 bind?
Result: binds

Does B3 bind?
Result: binds

Does B4 bind?
Result: binds

Does B5 bind?
Result: binds

Does B6 bind?
Result: binds

Does B7 bind?
Result: binds

Each binder was assayed against T4, human Myl9-His (human, UniProt P24844 2-172, limits assumed) (assay: ELISA, human Myl9-His coated, anti-human IgG-HRP).
T4 construct: Made in E. coli; the GST tag was cleaved with PreScission Protease
T4 sequence: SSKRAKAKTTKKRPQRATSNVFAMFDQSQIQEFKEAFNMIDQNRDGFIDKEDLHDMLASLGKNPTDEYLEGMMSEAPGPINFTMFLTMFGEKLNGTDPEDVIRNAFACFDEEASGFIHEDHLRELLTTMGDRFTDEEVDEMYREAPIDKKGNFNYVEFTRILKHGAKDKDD
Protocol: The binding ability against human Myl9 was evaluated following the steps below by ELISA. Human Myl3-His and human Myl9-His were coated onto the wells of a 96-well plate (Nunc). After an overnight incubation at 4° C., the wells were blocked at room temperature for one hour with 1× Block Ace (DS Pharma Biomedical Co., Ltd.). After washing three times with 0.02% Tween 20/PBS, seven serial dilutions by six folds of the chimeric and humanized antibodies were made from a concentration of 10 μg/mL and added to the wells. After incubation at room temperature for one hour and washing three times, horseradish peroxidase-labeled anti-human IgG antibody (Jackson ImmunoResearch Laboratories) was added, and this was incubated at room temperature for one hour. After washing 5 times, TMBZ (3,3′,5,5′-tetramethylbenzidine) solution was added to the wells, and this was incubated for 5-20 minutes at room temperature. An equal amount of reaction quenching solution (2N H₂SO₄) was added to the wells, and absorbance at 450 nm was read with a microplate reader (PerkinElmer).

Does B1 bind?
Result: binds

Does B2 bind?
Result: binds

Does B3 bind?
Result: binds

Does B4 bind?
Result: binds

Does B5 bind?
Result: binds

Does B6 bind?
Result: binds

Does B7 bind?
Result: binds

What follows are binders tested against T5, glutathione-S-transferase (GST)-His-mouse Myl9 (mouse, UniProt Q9CQ19 2-172) (assay: ELISA, GST-His-mouse Myl9 coated, anti-Flag-HRP).
T5 construct: The order of the pieces follows the printed name; not shown: glutathione-S-transferase tag of the pET42b vector
T5 sequence: T4 sequence with S74N
Protocol: Next, ELISA was performed in order to analyze the presence or absence of association between mouse Myl9 and mouse CD69 (FIGS. 3A and 3B). Specifically, GST-His-mouse Myl3 protein and GST-His-mouse Myl9 protein were added at a concentration of 5 μg/mL, and this was incubated overnight at 4° C. to immobilize them onan ELISA plate. On the next day, Block Ace (Sumitomo Dainippon Pharma Co., Ltd.) was employed to allow blocking at […] temperature for one hour, and then this was washed three times with a wash buffer (50 mM HEPES (pH 6.5), 150 mM NaCl, and 0.02% Tween 20). Different concentration of 3× Flag mouse CD69 EC protein was added to each well, and this was reacted at room temperature for one and a half hours. In FIG. 3B, 3× Flag mouse CD69 EC protein in which the N-linked sugar chain was cleaved with PNGase F (NEB) was employed. The cleaving treatment of the N-linked sugar chain was performed by employing 1,000 U of PNGase F for 4 μg of 3× Flag mouse CD69 EC protein. After washing three times with the wash buffer, HRP-labeled anti-Flag (M2) antibody (Sigma) was added, this was reacted at room temperature for one hour, and then washed five times with the wash buffer. TMB solution (BIO-RAD) was used as the coloring substrate, and the reaction was quenched with 1N H₂SO₄. SpectraMAX Paradigm (Molecular Device) was employed to measure the value at 450 nm.

Does B8 bind?
Result: binds

Does B9 bind?
Result: binds
